Source: patent US20180140716A1

How the values were obtained:
CD33 on HL-60 cells = CD33 on HL-60 cells (UniProt P20138); test: cell-based or functional assay
[1] = target: 5T4 antigen on cells (human (human cancer cell lines)) (UniProt Q13641); test: flow cytometry (MFI) on 5T4 expressing cells, anti-Fc FITC detection
Chain of UniProt Q13641 (Q13641 32-420): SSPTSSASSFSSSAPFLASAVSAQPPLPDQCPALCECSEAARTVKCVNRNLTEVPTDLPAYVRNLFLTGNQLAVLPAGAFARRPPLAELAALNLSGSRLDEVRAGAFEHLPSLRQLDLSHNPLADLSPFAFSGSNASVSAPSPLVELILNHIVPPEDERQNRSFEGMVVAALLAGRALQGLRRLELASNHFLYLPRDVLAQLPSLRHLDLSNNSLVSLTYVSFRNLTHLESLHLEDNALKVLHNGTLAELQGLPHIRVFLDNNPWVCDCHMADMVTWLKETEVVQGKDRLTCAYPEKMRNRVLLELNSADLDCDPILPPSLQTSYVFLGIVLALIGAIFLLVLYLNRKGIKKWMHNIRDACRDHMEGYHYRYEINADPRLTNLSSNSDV

Chain of UniProt P20138 (P20138 18-364 limits assumed): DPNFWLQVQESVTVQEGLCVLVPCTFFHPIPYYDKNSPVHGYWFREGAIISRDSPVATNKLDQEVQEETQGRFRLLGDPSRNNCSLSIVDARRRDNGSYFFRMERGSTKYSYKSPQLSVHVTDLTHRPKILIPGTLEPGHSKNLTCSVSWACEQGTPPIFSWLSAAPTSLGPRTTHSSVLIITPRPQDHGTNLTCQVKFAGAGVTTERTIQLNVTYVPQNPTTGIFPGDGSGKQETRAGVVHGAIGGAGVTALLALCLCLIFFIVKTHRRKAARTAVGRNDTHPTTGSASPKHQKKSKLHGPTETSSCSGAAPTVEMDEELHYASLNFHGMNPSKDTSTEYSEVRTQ

IC50, antiproliferation (Cell Titer-Glo), HL-60 cells (CD33 on HL-60 cells)	fold less binding than the anti-5T4 scFvFc proteins [1]	Substance
0.77 nM		Lintuzumab-((EG2-MI (2%)-(10 kDa PHF-BA (30%)-(AF-HPA-Ala (9%)), AF-HPA:lintuzumab about 10:1 to about 15:1 (antibody)
	200 fold less	non-binding scFvFc fusion protein
